Experimental data published in US20060281073A1.

Molecular target: αv integrins on NIH3T3 cells (αvβ3 and αvβ5) (mouse) (UniProt P43406)
Experiment: cell-based or functional assay

UniProt P43406, sequence (P43406 whole entry): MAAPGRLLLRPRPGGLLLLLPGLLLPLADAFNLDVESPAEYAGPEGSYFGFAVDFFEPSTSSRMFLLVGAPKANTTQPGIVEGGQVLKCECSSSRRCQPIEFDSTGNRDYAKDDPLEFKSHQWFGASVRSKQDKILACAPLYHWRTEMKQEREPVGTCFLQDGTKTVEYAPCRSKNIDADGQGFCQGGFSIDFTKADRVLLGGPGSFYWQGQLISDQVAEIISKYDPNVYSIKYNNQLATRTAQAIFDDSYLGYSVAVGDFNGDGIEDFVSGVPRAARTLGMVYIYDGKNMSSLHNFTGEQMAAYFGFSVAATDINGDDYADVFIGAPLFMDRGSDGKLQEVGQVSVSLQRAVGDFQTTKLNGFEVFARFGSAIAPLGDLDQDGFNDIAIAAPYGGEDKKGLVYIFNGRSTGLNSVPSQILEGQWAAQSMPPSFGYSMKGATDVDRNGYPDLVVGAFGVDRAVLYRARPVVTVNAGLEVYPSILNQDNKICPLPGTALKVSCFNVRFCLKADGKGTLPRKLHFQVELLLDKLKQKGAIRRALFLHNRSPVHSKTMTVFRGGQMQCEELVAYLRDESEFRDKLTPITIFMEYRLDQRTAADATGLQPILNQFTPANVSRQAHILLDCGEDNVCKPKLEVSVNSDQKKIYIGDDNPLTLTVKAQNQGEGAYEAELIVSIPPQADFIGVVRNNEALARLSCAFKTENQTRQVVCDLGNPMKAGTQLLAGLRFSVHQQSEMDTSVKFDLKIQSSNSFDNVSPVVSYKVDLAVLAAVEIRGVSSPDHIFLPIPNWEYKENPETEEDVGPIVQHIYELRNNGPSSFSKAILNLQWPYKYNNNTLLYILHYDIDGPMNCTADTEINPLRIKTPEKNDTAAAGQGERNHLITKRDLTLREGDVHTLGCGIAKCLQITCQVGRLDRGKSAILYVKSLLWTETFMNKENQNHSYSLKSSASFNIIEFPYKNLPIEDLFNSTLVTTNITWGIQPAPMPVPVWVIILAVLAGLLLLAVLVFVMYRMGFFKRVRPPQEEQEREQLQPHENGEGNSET

GRGDSP [RGD peptide (GRGDSP)]
reduction of transduction of Ad5luc-L1 in NIH3T3 cells compared to control RGE peptide: 40 % reduction
reduction of transduction of Ad5luc-L16 in NIH3T3 cells compared to control RGE peptide: 60 % reduction
reduction of transduction of Ad5luc-L33 in NIH3T3 cells compared to control RGE peptide: 61 % reduction
